Results reported in article PMC5898713.

Assays:
[1] = biological target: PhyT (formerly PhyP), T25 fusion; experiment: BACTH β-galactosidase assay; conditions: Overnight cultures containing 0.5 mM IPTG and antibiotics for selection, 30°C; three biological replicates; parent: est. 3000; read off a plot
[2] = biological target: NepR wild-type, T25 fusion; experiment: BACTH β-galactosidase assay; conditions: Overnight cultures containing 0.5 mM IPTG and antibiotics for selection, 30°C; three biological replicates; parent: est. 1500; read off a plot

## PhyR wild-type, T18 fusion D194A; E235A
[1]
  response: 780 Miller units
[2]
  response: 6900 Miller units

## PhyR wild-type, T18 fusion D194A
[1]
  response: 1100 Miller units
[2]
  response: 300 Miller units

## PhyR wild-type, T18 fusion E235A
[1]
  response: 3100 Miller units
[2]
  response: 7100 Miller units
